target: HIF-1 (HIF-1alpha/HIF-1beta (ARNT) heterodimer) (Homo sapiens?, UniProt Q16665;P27540 Q16665:1-826,P27540:2-789); test: competition; TransAM; conditions: protein: extract; tags: none (endogenous, nuclear extract)
Experimental: To assess the relative affinities of oligonucleotides for a HIF-1α containing complex, the HIF-1 TransAM assay (Active Motif, Catalog # 47096) was utilized. The assay was performed according to manufacturer's instructions. Briefly, a double-stranded oligonucletide containing the hypoxia response element (HRE) was immobilized on a 96-well plate. A nuclear extract containing HIF-1α complexes was incubated and allowed to bind to the immobilized oligonucleotide. The unbound material was washed away and the bound HIF-1α detected using an antibody that specificially recognizes HIF-1α. The anti-HIF-1α antibody was detected by a secondary antibody labeled with horseradish peroxidase (HRP), and the amount of HRP in each well was measured using a calorimetric substrate reaction and read using a microplate spectrophotometer.
The ability of candidate decoy molecules to compete for binding of HIF-1α to the HRE element-immobilized on the plate were measured and compared to reveal relative binding affinities. Candidate decoys were added in increasing molar ratios (relative to the amount of oligo immobilized on the plate) to compete for binding to the HIF-1α containing complexes. The amounts of decoys added to the assay included 0.625, 1.25, 2.5, 5, 10 and 20 fold molar excess. A well containing a competing decoy able to bind HIF-1α with high affinity would give a lower absorbance reading as compared to a decoy with low affinity for HIF-1α. All potential decoys were then compared and ranked in order to assess their relative binding affinities.
The screen was conducted using different decoy concentrations. For each UV absorbance reading, normalization was done by calculating the ratio of absorbance readings of sample vs. wild type control. The bigger ratio represents less competition of binding with HIF-1α when compared with wild-type control. The smaller (smaller than 1.0 or close to 1.0) ratios represent better binding or better competition.

HIF-1 (HIF-1alpha/HIF-1beta (ARNT) heterodimer), sequence (Q16665 whole entry, chain 1 of 2): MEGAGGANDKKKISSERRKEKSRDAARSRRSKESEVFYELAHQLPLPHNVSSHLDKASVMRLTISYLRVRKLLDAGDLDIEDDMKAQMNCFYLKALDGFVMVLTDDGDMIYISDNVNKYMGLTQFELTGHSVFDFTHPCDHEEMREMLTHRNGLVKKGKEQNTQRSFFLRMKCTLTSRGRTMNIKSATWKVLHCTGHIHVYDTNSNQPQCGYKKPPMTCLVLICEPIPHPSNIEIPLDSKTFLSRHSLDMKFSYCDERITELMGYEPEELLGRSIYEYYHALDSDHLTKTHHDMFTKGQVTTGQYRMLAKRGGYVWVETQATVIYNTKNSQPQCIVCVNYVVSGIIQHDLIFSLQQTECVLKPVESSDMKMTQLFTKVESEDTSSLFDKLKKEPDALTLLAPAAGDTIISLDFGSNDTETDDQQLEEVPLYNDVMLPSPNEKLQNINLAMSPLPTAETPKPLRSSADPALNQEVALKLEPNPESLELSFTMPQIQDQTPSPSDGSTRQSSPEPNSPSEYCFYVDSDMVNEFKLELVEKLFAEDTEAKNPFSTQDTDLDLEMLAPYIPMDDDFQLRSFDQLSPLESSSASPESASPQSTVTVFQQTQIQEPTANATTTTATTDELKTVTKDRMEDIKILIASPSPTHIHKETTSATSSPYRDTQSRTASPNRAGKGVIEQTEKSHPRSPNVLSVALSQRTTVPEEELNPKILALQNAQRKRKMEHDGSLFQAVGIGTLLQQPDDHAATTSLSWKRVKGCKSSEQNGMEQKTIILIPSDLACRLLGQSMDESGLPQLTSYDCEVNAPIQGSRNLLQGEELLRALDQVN
HIF-1 (HIF-1alpha/HIF-1beta (ARNT) heterodimer), sequence (P27540 2-789, chain 2 of 2): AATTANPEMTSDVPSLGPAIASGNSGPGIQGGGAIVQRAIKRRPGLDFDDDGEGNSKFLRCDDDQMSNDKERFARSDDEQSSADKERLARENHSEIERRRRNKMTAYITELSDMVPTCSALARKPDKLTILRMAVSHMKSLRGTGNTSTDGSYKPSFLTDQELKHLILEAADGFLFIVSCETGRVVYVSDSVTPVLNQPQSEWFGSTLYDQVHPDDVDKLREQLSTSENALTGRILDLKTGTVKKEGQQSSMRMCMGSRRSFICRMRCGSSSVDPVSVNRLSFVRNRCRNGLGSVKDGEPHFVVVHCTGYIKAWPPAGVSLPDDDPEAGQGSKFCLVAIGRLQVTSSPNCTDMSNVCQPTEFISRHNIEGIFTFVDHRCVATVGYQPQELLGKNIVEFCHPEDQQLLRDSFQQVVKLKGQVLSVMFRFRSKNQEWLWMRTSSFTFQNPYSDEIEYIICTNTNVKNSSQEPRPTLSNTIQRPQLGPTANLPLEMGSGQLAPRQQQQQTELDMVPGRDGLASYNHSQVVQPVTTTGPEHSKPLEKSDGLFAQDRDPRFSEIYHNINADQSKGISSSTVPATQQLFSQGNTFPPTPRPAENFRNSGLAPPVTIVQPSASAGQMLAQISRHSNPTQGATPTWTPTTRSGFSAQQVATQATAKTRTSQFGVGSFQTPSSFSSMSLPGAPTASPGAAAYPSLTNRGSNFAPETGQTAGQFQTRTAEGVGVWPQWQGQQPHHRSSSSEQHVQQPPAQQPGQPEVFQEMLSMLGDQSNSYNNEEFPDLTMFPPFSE

| Binder | binding signal [ratio] |
| --- | --- |
| decoy 805/806 (dsDNA) DNA 1: CCCCCTCGGACGTGACTCGGACCAC DNA 2: GTGGTCCGAGTCACGTCCGAGGGGG | 1.13 |
| decoy 833/834 (dsDNA) DNA 1: TCCAATGCGTGCAGTACT DNA 2: AGTACTGCACGCATTGGA | 3.05 |
| decoy 831/832 (dsDNA) DNA 1: TCCAATACGTGCAGTACT DNA 2: AGTACTGCACGTATTGGA | 3.36 |
| decoy 949 (dsDNA) DNA 1: CCAGCGTACGGGCCTCAGG DNA 2: CCTGAGGCCCGTACGCTGG | 2.73 |
| decoy 989 (dsDNA) DNA 1: CCAGCGTACGTGCTTCAGG DNA 2: CCTGAAGCACGTACGCTGG | 1.21 |
| decoy 947 (dsDNA) DNA 1: CCAGCGTACGCGCCTCAGG DNA 2: CCTGAGGCGCGTACGCTGG | 2.94 |
| decoy 959 (dsDNA) DNA 1: CCAGCGAACGTGCCTCAGG DNA 2: CCTGAGGCACGTTCGCTGG | 2.07 |
| decoy 871/872 (dsDNA) DNA 1: ACCGTACGTGCTGCCA DNA 2: TGGCAGCACGTACGGT | 2.21 |
| decoy 829/830 (dsDNA) DNA 1: AGGAGACGTGCTGCCT DNA 2: AGGCAGCACGTCTCCT | 5.12 |
| decoy 953 (dsDNA) DNA 1: CCAGCGTACGTACCTCAGG DNA 2: CCTGAGGTACGTACGCTGG | 2.67 |
| decoy 945 (dsDNA) DNA 1: CCAGCGTACGAGCCTCAGG DNA 2: CCTGAGGCTCGTACGCTGG | 3.14 |
| decoy 969 (dsDNA) DNA 1: CCAGGGTACGTGCCTCAGG DNA 2: CCTGAGGCACGTACCCTGG | 1.67 |
| decoy 957 (dsDNA) DNA 1: CCAGCGCACGTGCCTCAGG DNA 2: CCTGAGGCACGTGCGCTGG | 1.41 |
| decoy 815/816 (dsDNA) DNA 1: GTGAGACGTGCGGCTTCCGTTTG DNA 2: CAAACGGAAGCCGCACGTCTCAC | 4.43 |
| decoy 873/874 (dsDNA) DNA 1: TCCGTACGTGCTGCGT DNA 2: ACGCAGCACGTACGGA | 2.33 |
| decoy 941 (dsDNA) DNA 1: CCAGCGTACCTGCCTCAGG DNA 2: CCTGAGGCAGGTACGCTGG | 3.45 |
| decoy 991 (dsDNA) DNA 1: CCAGCGTACGTGCATCAGG DNA 2: CCTGATGCACGTACGCTGG | 1.02 |
| decoy 899 (dsDNA) DNA 1: CGAGCGTACGTGCCTCAGG DNA 2: CCTGAGGCACGTACGCTCG | 1.34 |
| decoy 821/822 (dsDNA) DNA 1: CGCGAGCGTACGTGCCTCAGG DNA 2: CCTGAGGCACGTACGCTCGCG | 1.33 |
| decoy 979 (dsDNA) DNA 1: CCATCGTACGTGCCTCAGG DNA 2: CCTGAGGCACGTACGATGG | 1.41 |
| decoy 847/848 (dsDNA) DNA 1: GGAACAACGTGGAATTAG DNA 2: CTAATTCCACGTTGTTCC | 3.02 |
| decoy 961 (dsDNA) DNA 1: CCAGCGGACGTGCCTCAGG DNA 2: CCTGAGGCACGTCCGCTGG | 1.65 |
| decoy 931 (dsDNA) DNA 1: CCAGCGTCCGTGCCTCAGG DNA 2: CCTGAGGCACGGACGCTGG | 3.44 |
| decoy 813/814 (dsDNA) DNA 1: GCCCTACGTGCTGTCTCACACAGC DNA 2: GCTGTGTGAGACAGCACGTAGGGC | 4.6 |
| decoy 987 (dsDNA) DNA 1: CCAGCGTACGTGCGTCAGG DNA 2: CCTGACGCACGTACGCTGG | 1.16 |
| decoy 993 (dsDNA) DNA 1: CCAGCGTACGTGCCACAGG DNA 2: CCTGTGGCACGTACGCTGG | 0.93 |

| Binder | binding signal [ratio] |
| --- | --- |
| decoy 951 (dsDNA) DNA 1: CCAGCGTACGTCCCTCAGG DNA 2: CCTGAGGGACGTACGCTGG | 2.91 |
| decoy 807/808 (dsDNA) DNA 1: TCTGTACGTGACCACACTCACCTC DNA 2: GAGGTGAGTGTGGTCACGTACAGA | 2.76 |
| decoy 911 (dsDNA) DNA 1: CACAGCGTACGTGCTGTCTCA DNA 2: TGAGACAGCACGTACGCTGTG | 1.16 |
| decoy 927 (dsDNA) DNA 1: CCAGCGTTCGTGCCTCAGG DNA 2: CCTGAGGCACGAACGCTGG | 3.16 |
| decoy 977 (dsDNA) DNA 1: CCAACGTACGTGCCTCAGG DNA 2: CCTGAGGCACGTACGTTGG | 1.43 |
| decoy 859/860 (dsDNA) DNA 1: ACCGTACGTGCTGATC DNA 2: GATCAGCACGTACGGT | 2.37 |
| decoy 971 (dsDNA) DNA 1: CCAGTGTACGTGCCTCAGG DNA 2: CCTGAGGCACGTACACTGG | 1.05 |
| decoy 855/856 (dsDNA) DNA 1: GTGTGTACGTGCAGGAAA DNA 2: TTTCCTGCACGTACACAC | 1.07 |
| decoy 929 (dsDNA) DNA 1: CCAGCGTGCGTGCCTCAGG DNA 2: CCTGAGGCACGCACGCTGG | 2.35 |
| decoy 905 (dsDNA) DNA 1: GATCGCCCTACGTGCTGTCTCAGATC DNA 2: GATCTGAGACAGCACGTAGGGCGATC | 1.54 |
| decoy 837/838 (dsDNA) DNA 1: AGGCAACGTGCAGCCG DNA 2: CGGCTGCACGTTGCCT | 3.74 |
| decoy 963 (dsDNA) DNA 1: CCAGCCTACGTGCCTCAGG DNA 2: CCTGAGGCACGTAGGCTGG | 1.17 |
| decoy 877/878 (dsDNA) DNA 1: ACCGTACGTGCTGCTA DNA 2: TAGCAGCACGTACGGT | 2.23 |
| decoy 835/836 (dsDNA) DNA 1: GGCCAGACGTGCCACCGG DNA 2: CCGGTGGCACGTCTGGCC | 2.91 |
| decoy 975 (dsDNA) DNA 1: CCACCGTACGTGCCTCAGG DNA 2: CCTGAGGCACGTACGGTGG | 1.63 |
| decoy 973 (dsDNA) DNA 1: CCAGAGTACGTGCCTCAGG DNA 2: CCTGAGGCACGTACTCTGG | 1.34 |
| decoy 801/802 (dsDNA) DNA 1: GCCCTACGTGCTGTCTCA DNA 2: TGAGACAGCACGTAGGGC | 4 |
| decoy 943 (dsDNA) DNA 1: CCAGCGTACTTGCCTCAGG DNA 2: CCTGAGGCAAGTACGCTGG | 2.83 |
| decoy 867/868 (dsDNA) DNA 1: TCCGTACGTGCTGCAC DNA 2: GTGCAGCACGTACGGA | 2.63 |
| decoy 893 (dsDNA) DNA 1: CACGAGCGTACGTGCCTCAGG DNA 2: CCTGAGGCACGTACGCTCGTG | 0.94 |
| decoy 965 (dsDNA) DNA 1: CCAGCTTACGTGCCTCAGG DNA 2: CCTGAGGCACGTAAGCTGG | 1.61 |
| decoy 995 (dsDNA) DNA 1: CCAGCGTACGTGCCGCAGG DNA 2: CCTGCGGCACGTACGCTGG | 0.92 |
| decoy 939 (dsDNA) DNA 1: CCAGCGTACATGCCTCAGG DNA 2: CCTGAGGCATGTACGCTGG | 2.93 |
| decoy 967 (dsDNA) DNA 1: CCAGCATACGTGCCTCAGG DNA 2: CCTGAGGCACGTATGCTGG | 1.53 |
| decoy 955 (dsDNA) DNA 1: CCAGCGTACGTTCCTCAGG DNA 2: CCTGAGGAACGTACGCTGG | 2.4 |
